Biological target: Recombinant PP99 gp55 tail spike protein (Pectobacterium phage PP99)
Assay: SEC; gel-filtration of purified PP99 gp55 on a calibrated Superdex 200 10 x 300 column; oligomeric state

Recombinant PP99 gp55 tail spike protein (natural protein)
stoichiometry N: 3

Source: publication PMC6989608
